# Data published in publication PMC13163806.
# Tests used:
# [1] = system: PDCD4; assay: EMSA; conditions: 0.2-1.2 uM protein; fluorescein-12-UTP incorporated about every 20-25 nt; 150 mM NaCl, 20 mM HEPES (pH not stated), 1.5 mM MgCl2, 0.1 mM EDTA, 0.75 mM DTT, 10% glycerol; 2.3 nM labelled RNA; on ice 20 min; 1% native agarose gel
# [2] = system: eIF3F; assay: EMSA; conditions: 0.4-2.6 uM protein; fluorescein-12-UTP incorporated about every 20-25 nt; 150 mM NaCl, 20 mM HEPES (pH not stated), 1.5 mM MgCl2, 0.1 mM EDTA, 0.75 mM DTT, 10% glycerol; 2.3 nM labelled RNA; on ice 20 min; 1% native agarose gel
substance,measurement,setting,value
Bcl-xL IRES RNA,Kd,[1],400 nM
same,Kd,[2],800 nM
